Assay results reported in the supplement of paper PMC9170038.

System: MS2 coat protein
Assay: apparent KD of MS2 coat protein; designed switch direction (-1 OFF switch, 1 ON switch): -1; higher = weaker reporter binding
Method in brief: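 The reported apparent KD is a per-design median over clusters, from curve fits of normalised cluster fluorescence. Protein titrations used SNAP-549-labelled MS2 coat protein, doubled from 0.7 or 1.5 nM to 3 µM, in Tris-HCl pH 7.5 buffer with KCl, MgCl2, BSA, DTT, tRNA and Tween-20, with no input, 200 uM small-molecule ligand, or an oligonucleotide input. The RNA switches were transcribed on Illumina chips by stalled E. coli RNA polymerase.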

[1] = input ligand: microRNA oligo, concentration not stated
[2] = Eterna round: R95, input ligand: microRNA oligo, concentration not stated
[3] = Eterna round: R95, input ligand: FMN 200 uM
[4] = Eterna round: R95, input ligand: none

Row | Sequence | apparent KD of MS2 coat protein (input ligand: FMN 200 uM) [nM] | apparent KD of MS2 coat protein (input ligand: none) [nM] | apparent KD of MS2 coat protein [1] [nM] | apparent KD of MS2 coat protein [2] [nM] | apparent KD of MS2 coat protein [3] [nM] | apparent KD of MS2 coat protein [4] [nM]
1 | CGGCAAUCCUAGGAUAUGCUAGACGAAAGUCUAGCAGAAGGAGGAACAUGAGGAUCACCCAUGUGUCCUAGCCG [Eli x6 4.02] (Eterna round: R97, puzzle: Exclusion 6) | 23.5 | 20.2 |  |  |  | 
2 | AACAAGCUUUUAAGAUCCUACAUGAGGAUCACCCAUGUGCUCGUCUUGUAACGUACUGUGACGAAAGUCACGGUACG [JL TOV1 3.29] (Eterna round: R97, puzzle: Sensor, turn-off variant 1) | 233 | 182 |  |  |  | 
3 | CCGUCACAUGAGGAUCACCCAUGUCAGGAUAUCUCAGUGCAUCCACACGGACGCAUCAAGAGAAGGGACAAAAC [Vinxlusion 6 - Jieux - Exclusion 1] (Eterna round: R97, puzzle: Exclusion 1) | 47.9 | 34.8 |  |  |  | 
4 | ACAUGUAUUGCAGGAUAUGGGACACAUGAGGAUCACCCAUGUGACUACAUGUCAUGCCACGGGUCUCAGAAGGGUAUGUACAUG [Ex NG2 #41] (Eterna round: R96, puzzle: Exclusion NG 2) | 23.3 | 14.9 | 12.1 |  |  | 
5 | AGCACGCUUUUGCUCGAUCACAUGAGGAUCACCCAUGUGUGCUAAUAGGCCAAGGUGAAAGCCUCAGACAUAGUUUA [Eternabot (L1) Solution 1] (Eterna round: R97, puzzle: Sensor, turn-off variant 1) | 153 | 173 |  |  |  | 
6 | AAUUAUUUUUGAGGAUAUCGUGGUGAAACACCACGAGAAGGCAAGAUACACAUGAGGAUCACCCAUGUGAGCCUGAUGCUUAUG [Ex NG1 #52] (Eterna round: R96, puzzle: Exclusion NG 1) |  |  | 13.2 |  |  | 
7 | CCGGAAAUGCAGGAUAUCGUAUCGGAUACGAUACGAGAAGGGUAUACAUGAGGAUCACCCAUGUGUCCUCCCGG [Fiskers Ex 6 - 53] (puzzle: Exclusion 6) |  |  |  | 28 |  | 
8 | CUGUACUGAGGAUAUACAUGAGGAUCACCCAUGUGUCCCAGCUAGGAAACUAGCAAAGGUAGAAGGCAGUACAG [Mat - Exclusion 3 - Eli Mod - D57] (Eterna round: R97, puzzle: Exclusion 3) | 302 | 22.6 |  |  |  | 
9 | UUGUUGUAUGUAGGAUAUGCAUGUUAUUAUUAUGCAGAAGGACAUGAGGAUCACCCAUGUAUAUUAUUAUUAUAUGUUAUAUAU [Title] (Eterna round: R96, puzzle: Exclusion NG 1) | 22.2 | 23.9 | 17.9 |  |  | 
10 | CACAAUGACGUCAGGAUAUGUAAACAGCGAAGUUUGUAGAAGGGACAUGAGGAUCACCCAUGUAUAACUGGGAG [Eternabot (L2) Solution 27] (Eterna round: R97, puzzle: Brourd's mod of Exclusion 4) | 220 | 149 |  |  |  | 
11 | AGCGUGGAGACAGGAUAUGAGAAUAGAUAGAACUCAGAAGGGUCACAUGAGGAUCACCCAUGUAAAGUCUUGAGGCUGCGUGGU [Prohibition 7 - Jieux - Exclusion NG 1] (Eterna round: R96, puzzle: Exclusion NG 1) | 341 | 109 | 74.1 |  |  | 
12 | GCCAGAGGAGGAUAUCUAAUAUAUCACAUGAGGAUCACCCAUGUCCAGCGAAAGCUGGAGGGAGAAGGCCUCUGGC [Fiskers Ex 5 - 23] (puzzle: Exclusion 5) |  |  |  | 98.2 | 46 | 78.2
13 | ACGGACGCAGGAUAUCGCACCGGAGACUUGAGGAUCACCCAAGUGGUUUUCCCUUCGCAACGAGAAGGGCGACCUA [Tiarle] (Eterna round: R97, puzzle: Exclusion 5) | 55.7 | 35.2 |  |  |  | 
14 | UUAAAUCAUGUAGGAUAUGCGUGGCAAAGCUAUGCAGAAGGACAUGAGGAUCACCCAUGUUCUAGCGUCUGAGAACAGAUGCUA [Mat - Exclusion NG 1 - Mod of JL - D78] (Eterna round: R96, puzzle: Exclusion NG 1) | 566 | 47.7 | 24.2 |  |  | 
15 | GUAGAGUAAGGAUAUGCUGAAUAGGAUAGAAUGGUUAGAAAGUAGAAGGUACAUGAGGAUCACCCAUGUAAUGU [Excluse me!!!! 24 - Jieux - Exclusion 4] (puzzle: Exclusion 4) |  |  |  | 20.3 |  | 
16 | GCUGGACAAGGAUAUACAUGAGGAUCACCCAUGUGAUCAGCAGUCCUCGGACUGCAAUGUAGAAGGUGUCCAGC [E3/1-C2] (Eterna round: R97, puzzle: Exclusion 3) | 38.9 | 198 |  |  |  | 
17 | ACAUGAGGAUCACCCAUGUUGUACUGGAUAGGGUGGUCCAGGUAGGAUAUGCAAACGCGUUGCGAGCAGAAGGACCACAGCCAG [Ceed] (Eterna round: R96, puzzle: Exclusion NG 3) | 49.8 | 35.3 | 29.4 |  |  | 

Row | Sequence | apparent KD of MS2 coat protein (input ligand: FMN 200 uM) [nM] | apparent KD of MS2 coat protein (input ligand: none) [nM] | apparent KD of MS2 coat protein [1] [nM] | apparent KD of MS2 coat protein [2] [nM] | apparent KD of MS2 coat protein [3] [nM] | apparent KD of MS2 coat protein [4] [nM]
18 | AUGUGCACGCUGCGGUCCUACAUGAGGAUCACCCAUGUGGUCUGGUGGCGUGGGUCGCCGGACUUGGCUCGUCUUGU [salish99_S_TOV1_R5_030] (Eterna round: R97, puzzle: Sensor, turn-off variant 1) | 18.6 | 18.7 |  |  |  | 
19 | GCGUGACAUGAGGAUCACCCAUGUGAGGAUAUCUGGAUACUCUUUAUUUUAGAUAUCCAGAGAAGGCACAUGCU [Ex1-3: 4Z] (puzzle: Exclusion 1) |  |  |  | 191 |  | 
20 | UUUUACAUAGGAUAUAGUUGCUUUUACAUGAGGAUCACCCAUGUCUCUCCUCUCUCUCUUCUAGAAGGAUGUUUCU [JR_E5_Sub011] (puzzle: Exclusion 5) |  |  |  | 53.3 |  | 
21 | UUGUUAUAUGUAGGAUAUGCAUAUUAUUAUUAUGCAGAAGGACAUGAGGAUCACCCAUGUAUAUUAUUGUUAUAUGUUAUAUAU [Title] (Eterna round: R96, puzzle: Exclusion NG 1) |  |  | 16.6 |  |  | 
22 | ACAUGAGGAUCACCCAUGUAAUGAAGGGUACUAUAUUAAACGUAGGAUAUCGAUGUAAGUUUGUUCGAGAAGGACGAUUGCCUU [JR_ExcNG3_Sub053] (Eterna round: R96, puzzle: Exclusion NG 3) | 28.1 | 75.8 | 38.6 |  |  | 
23 | CCGCUAAGAGCAGGAUAUGAGUAACAUGAGGAUCACCCAUGUGGACCAUGAAACAGUCCACGCAGUCAGAAGGGUUACGUGGCA [Eternabot solution 33] (Eterna round: R96, puzzle: Exclusion NG 2) | 38.8 | 34.3 | 23.1 |  |  | 
24 | AAGUACCGUCACGAUAGUGAUGGUACAACAAGUGAAUGUACAUGAGGAUCACCCAUGUCCUCUUUUGCUCGUCUUAU [Sensor 3 - 92] (puzzle: Sensor v3, turn-off variant 2) |  |  |  | 30.9 | 151 | 184
25 | UUUUUCUCAGGAUAUACAUGAGGAUCACCCAUGUAUAUUGAUGAUAAUACAUGGGAAUGUAGAAGGGAGCUCAU [Omei Ex3 Pseudoloop 16] (Eterna round: R97, puzzle: Exclusion 3) | 87.9 | 95.7 |  |  |  | 
26 | UGUUGUCGCGUAGGAUAUGAGGAUCACCCAUAGAAGGAUAUCGAAAGAGAAGGUCUGAGGAUUACCCAGAAGGACGGGACAACU [pwkr exNG2 2xF5 2xFMN.14] (Eterna round: R96, puzzle: Exclusion NG 2) | 682 | 151 | 160 |  |  | 
27 | UGUACUAUGCGAGCUGACUUGCGUAGUGCAGCAGGUGUAACAUGAGGAUCACCCAUGUCCUCAUUUGCUCGUCUUAA [Mat - Sensor v3 - Turn-off var 2 - D10] (puzzle: Sensor v3, turn-off variant 2) |  |  |  | 196 | 458 | 388
28 | UUUGUUUGGUAGGAUAUCAACUAAGAGAGUGGCUGAGAAGGACCAACAUGAGGAUCACCCAUGUCGGUUCCGUU [EX6 C.15] (Eterna round: R97, puzzle: Exclusion 6) | 16.2 | 14.8 |  |  |  | 
29 | UUUACAAGCUAAUGAUCCCACAUGAGGAUCACCCAUGUUGCUGCCGGUGACGGUAGCAUAACAUUUGCUCGUCUUAU [JL TOV1 3.58] (Eterna round: R97, puzzle: Sensor, turn-off variant 1) | 1180 | 1010 |  |  |  | 
30 | CUAGGUCGAGGAUAUACAUGAGGAUCACCCAUGUCGGUUCCAUGAGAGCUAGACACUAGUAGAAGGCGGUAGGC [Eternabot (L2) Solution 60] (Eterna round: R97, puzzle: Exclusion 3) | 26.1 | 27.8 |  |  |  | 
31 | CUAGCGAUUGUAGGAUAUCGGACUGUUUCAGUCUGAGAAGGACAUGAGGAUCACCCAUGUGAAGCUACGUGAGUAGCACGCUAG [JL ENG1 3.84] (Eterna round: R96, puzzle: Exclusion NG 1) | 46.1 | 24.5 | 15.4 |  |  | 
32 | CCGUGUUUAGGAUAUGCUAUGGAAGUGUUAAUAUUCAUUAGACAUGAGGAUCACCCAUGUAGAAGGAGGCCGCG [Eternabot (L1) Solution 96] (Eterna round: R97, puzzle: Exclusion 2) | 340 | 142 |  |  |  | 
33 | CCUGCGGACAAAGGAUAUUGCGGUGGCCGGCUCGGCGUACCGAGCCUACAUGAGGAUCACCCAUGUAAGAAGGUUGUCGUUGGA [Mat - Exclusion NG 2 - Mod of JL - D71] (Eterna round: R96, puzzle: Exclusion NG 2) | 228 | 40.1 | 27 |  |  | 
